Experimental data from US20040229301A1 (published 2004).
Values joined by “and” are separate entries in the source; they are usually repeats but may differ in a detail not shown here. Identical values can stand only once.

Key:
[1] = biological target: T1, soluble human tissue factor (extracellular domain of hTF with C-terminal RGS-His6 tag) (human, UniProt P13726 33-251); experiment: BIAcore X, soluble hTF immobilized on CM5 chip, mAb injected
T1 construct: leader left out (range computed from the stated lengths); Expressed in HEK293, purified on Ni-agarose and by gel filtration; also called soluble hTF; recombinant soluble hTF
Description: Binding properties of anti-hTF mAbs were evaluated using BIAcore X. Briefly, a CM5 BIAcore biosensor chip was docked into the instrument and activated with 55 μl of 1:1 NHS/EDC at room temperature. The recombinant soluble hTF and BSA (10 μg/ml in 0.05 M acetate buffer, pH 4.5) were immobilized on the activated chips in flow cells 1 and 2, respectively. The immobilization was carried out at a flow rate of 5 μl/min until a resonance response of 1000-2000 RU was achieved. The chip was then blocked by injection of 55 μl of ethanolamine-HCl, pH 8.5 followed by 5 washes with 50 mM NaOH, 1 M NaCl. To measure the binding of anti-hTF mAbs to the soluble hTF immobilized to the chip, 30 μl of anti-hTF mAbs at varying concentrations in BIAcore running buffer (HBS-EP, Biacore AB, Uppsala, Sweden, Cat. #1001-08) were injected over the sensor surface at a flow rate of 5 μl/min. Following completion of the injection phase, dissociation was monitored in BIAcore running buffer at the same flow rate for 360 seconds. The surface was regenerated between injections using 30 μl of 50 mM NaOH-1 M NaCl. Individual sensorgrams were analyzed using BIAsimulation software.

[2] = biological target: T2, human tissue factor, endogenous, on tumor cell lines (H596; TF-positive SW900) (human, UniProt P13726 33-295); experiment: FACS on H596 cells
T2 construct: whole, on cells; also called hTF

[3] = biological target: full-length human tissue factor with C-terminal RGS-His6 tag, stably expressed on CHO-K1 cells (human, UniProt P13726 33-295); experiment: cell-based or functional assay

Binder | Kd [1] | koff [1] | kon [1] | EC50 [2] | Coagulation (seconds), Ab 10 ug/ml [3] | Bmax [2]
monoclonal anti-TF antibody TF278 (hybridoma cell line TF278, ATCC PTA-5676) (antibody, IgG1, V domains shown) VH: EVQLQQSGAELMKPGASVKISCKATGYTFSSYWIEWVKQRPGHGLEWIGEILPGSASTKYNEKFKGKATFTADTSSNTAYMQLSSLTSEDSAVYYCARDYYYGSSYGFAYWGQGTLVTVSS VL: QAVVTQESALTTSPGETVTLTCRSSTGAVTTSNYANWVQEKPDHLFTGLIGGTNNRGPGVPARFSGSLIGDKAALTITGAQTEDEAVYFCALWYSNHWVFGGGTKLTVLG | 0.789 nM | 0.000138 s⁻¹ |  | 0.48 nM and 1.14 nM | 190 s | 
monoclonal anti-TF antibody TF392 (hybridoma cell line TF392, ATCC PTA-5677) (antibody, IgG1, V domains shown) VH: QVQLKESGAELMKPGASVKISCKATGYTFSSYWIEWVKQRPGHGLEWIGEILPGSGSTNYNEKFKGKATFTADTSSNTAYMQLSSLTSEDSAVYYCARDRNGYVNYFDSWGQGTTLTVSS VL: QAVVTQESALTTSPGETVTLTCRSSTGAVTTSNYANWVQEKPDHLFTGLIGGTNNRAPGVPARFSGSLIGDKAALTITGAQTEDEAIYFCALWYSNHWVFGGGTKLTVLG | 2.46 nM | 0.00013 s⁻¹ |  | 6.29 nM | 210 s | 58
monoclonal anti-TF antibody TF9 (hybridoma cell line TF9, ATCC PTA-5674) (antibody, V domains shown) VH: DVKLQESGPDLVKPSQSLSLTCTVTGYSITSGYSWHWIRQFPGNKLEWMGYIHYSGSTKYNPSLKSRISITRDTSKNQFFLQLNSVTTEDTATYYCARLWSWYFDVWGAGTTVTVSS VL: NIMMTQSPSSLAVSAGEKVTMSCKSSQSVLYSSNQKNYLAWYQQKPGQSPKLLIYWASTRESGVPDRFTGSGSGTDFTLTISSVQAEDLAVYYCHQYLSSYTFGGGTKLEIK | 1.84 nM | 0.000364 s⁻¹ |  |  | 195 s | 

More lines, in order of falling Kd [1], values ahead:

Kd [1] | koff [1] | kon [1] | EC50 [2] | Coagulation (seconds), Ab 10 ug/ml [3] | Bmax [2] | Binder
66.3 nM | 0.00279 s⁻¹ | 42100 M⁻¹ s⁻¹ |  |  |  | monoclonal anti-TF antibody TF196 (hybridoma cell line TF196, ATCC PTA-5196) (antibody, V domains shown, Mouse hybridoma IgG) VH: QVQLKQSGPELEKPGASVKISCKASGYSFTGYNMNWVKQSNGKSLEWIGNIDPYYGGTSYNQKFKGKATLTVDKSSNTAYMHLKSLTSEDSAVYYCARDSSSWFAYWGQGTLVTVSA VL: DIQLTQSPASLSASVGETVTITCRASGNIHNYLAWYQQKQGKSPQLLVYNAKTLADGVPSRFSGSGSGTQYSLKINSLQPEDFGSYYCQHFWITPWTFGGGTKLEI
19.3 nM | 0.000191 s⁻¹ | 9910 M⁻¹ s⁻¹ |  |  |  | monoclonal anti-TF antibody TF260 (hybridoma cell line TF260, ATCC PTA-5197) (antibody, V domains shown) VH: QVQLKQSGAELMKPGASVKISCKATGYTFSSYWIEWVKQRPGHGLEWIGEILPGSGSTNYNEKFKGKATFTADTSSNTAYMQLSSLTSEDSAVYYCAREDRYDGDYWGQGTTLTVS VL: QAVVTQESALTTSPGETVTLTCRSSTGAVTTSNYANWVQEKPDHLFTGLIGGTNNRAPGVPARFSGSLIGDKAALTITGAQTEDEAIYFCALWYSNHWVFGGGTKLTVLG
7.14 nM | 0.00312 s⁻¹ |  | 0.48 nM and 0.71 nM | 202 s |  | monoclonal anti-TF antibody TF277 (hybridoma cell line TF277, ATCC PTA-5675) (antibody, IgG1, V domains shown) VH: QVQLQQPGAELVKPGASVKLSCKTSGYTFTSYWMHWVKQRPGQGLEWIGEIDPSDSYTNYNQKFKGKATLTVDKSSSTAYMQLSSLTSEDSAVYYCTYYVNYYAMDYWGQGTSVTVSS VL: QIVLTQSPAIMSASLGEEITLTCSASSSVSYMHWYQQKSGTSPKLLIYSTSNLASGVPSRFSGSGSGTFYSLTISSVEAEDAADYYCHQWSSYPYTFGGGTKLEIK
